This note sets out measurements from patent US20230226096A1 (Orna Therapeutics, Inc., priority 2020, published 2023).

The labels stand for the following.
B1: TRV NGS910 (nucleic acid)
DNA: ATGCGACGTGGTTGGAGATTAAACCGACTCCGACGAAAGTGCTATCATGCCTCCCCGATTATGTGATGTTTTCTGCCCTGCTGGGCGGAGCATTCTCGGGTTGATACACCTTGAATCCTTCATCCTTGGACCTCAGGTCCCCCGGTCTAAGCCGCTTGGAATACGACAGGGTTATTTTCCAATCTTCTCCTTTCTACTTTCATGAGTCCTATTCATGAAAAGGGTCTGTGCTGCCCCTTCCTTCTTGGAGAATCTGCGCGGCGGTCTTTCCGTCTCTCGAAAAGCGCAGATGCAGCATGCTGGAACCGGTGAAGAAAACAGTTCTTTGTGGAAACTTAGAGCAGACATCGAAACAGCTGTAGTGACCTCACAGTAGCAGCGGAACCCCCTCCTGGTAACAGGAGCCTCTGCGGCCAAAAGCCCCGTGGATAAGATCCACTGCTGTGAGCGGTGCAACCCCAGCACCCTGGTTCGATGGTTGTTCTCTGTGGAACCAGAGAATGGTCTTTCTCAAGCCCTCCAGTAGAGAAGCCAAGAATGTCCTGAAGGTACCCCGCATGCGGGATCTGATCAGGAGACCAATCGTCAGTGCTTTACACTGGCGCTTTGGTTTAAAAACTGTCACAGCTTCTCCAAACCAAGTGGTCTTGGTTTTCACTTTTATCAAACTGTTTC
B2: VHEV (nucleic acid)
DNA: AATTCCTTCTTCCTTTCTCCTTGGACCTCGGTCCCCCGGTCTAAGCCGCTCGGAATATGACAGGGTTATTTTCACCTCTTCTCTCTTCTACTTCATAGTGTTCTATACTATGAAAGGGTATGTGTCGCCCCTTCCTTCTTGGAGAACGTGCGTGGCGGTCTTTCCGTCTCTCGAAAAACGTGCGTGCGACATGCAGAGTAACGCAAAGAAAGCAGTTCTTGGTCTAGCTCTGGTGCCCACAAGAAAACAGCTGTAGCGACCACACAAAGGCAGCGGAAACCCCCTCCTGGTAACAGGAGCCTCTGCGGCCAAAAGCCACGTGGATAAGATCCACCTTTGTGTGCGGTGCAACCCCAGCACCCTGGTTTCTTGGTGACACCTTAGTGAACCCTCGAATGGCAATCTCAAGCGCCTCTGTAGGAAAGCCAAGAATGTCCAGGAGGTACCCCTTCCTCATGGAGGGATCTGACCTGGAGACACATCACACGTGCTATACACTTGTGCTTGTGTTTAAAAATTGTCACAGCTTTCCCAAACCAAGTGGTCTTGGTTTTCCCTTAACTTCGAAAAGTCACTATGGCCTGCAAACATGGATACCCAGACGTGTGCCCT
B3: EMCV1 AnrB-3741 (nucleic acid)
DNA: ATGTGGTCGAAGCCACTTGGAATAAGACCGGCGTGCGCTTGTCTATATGTTACTTCCACCACATTGCCGTCTTTTGGCAATGTGAGGGCCCGGAACCTGGCCCTGTCTTCTTGACGAACATTCCTAGGGGACTTTCCCCTCTCGCCAAAGGAATGTAAGGTCTGTTGAATGTCGTGAAGGAAGCAGTTCCTCTGGAAGCTTCTTGAAGACAAACAGCGTCTGTAGCGACCCTTTGCAGGCAGCGGAACCCCCCACCTGGTAACAGGTGCCTCTGCGGCCGAAAGCCACGTGTATAAGATACACCTGCAAAGGCGGCACAACCCCAGTGCCACGTTGTGCGTTGGATAGTTGTGGAAAGAGTCAAATGGCTTTCCCCAAGCGTATTCAACAAGGGGCTGAAGGATGCCCAGAAGGTACCCCACTGGTTGGGATCTGATCTGGGGCCTCGGTGCAGGTGCTTTACACCTGTTGAGTCGAGGTTAAAAAACGTCTAGGCCCCCCGAACCACGGGGACGTGGTTTTCCTAGAAAACCACTATGACAAT
B4: BRBV-1 (nucleic acid)
DNA: CCCCCCCTACTTAAAGATGTACGGTTTTGCTGCTTTCACAGAGTAAAGCAGATAGAGGTTCTGAACTGGCAAACTTTACCTCGAAACACGCCCGTTTTTCTGCTGTGTCTCACAGACTGTCCTGTCACACTTGTGGCGGCTTGTGACACTGTGAACATAGTGAGACCGACCAAGACAACAGTTTCAAGTGATGAACATCGAACGTCTAAACTGGATCCGTAACTGGACATGTTAGGGCAAGGACTTCCCCCCTGGTAACAGGAGCCTGGCTGGCCAAAAGCCCCGCTCATTGAGCCTAGCATGTTGTCGACCCTGGACTGTTCAGTTTAGTTAGTACATGGAATTCACTTGTCACGGTTCTTCTGAACTCGGTCTCTAGTATGACAGCCTAAGGATGCCCTCCAGGTACCCCGGGGTAACAAGTGACACCCGGGATCTGAGGAGGGGACTACTTTACGTAGTTTAAAAAACGTCTAAGCTGTTATGGTGACCAGAGGCTGGCACCTTTCACTTTTAAAATTACACTACTGACTACAATTGAAGTGATAACGGTTTTACAGGCTTTCAAACTAGTTACACAAGCACTGTTTTCCTGACACACACACTTT
modifications: Bovine rhinitis B virus
B5: EMCV2 RD1338 (nucleic acid)
DNA: AAATACTGGTCGAAACCGCTTGGGATAAGACCGGGGTTTGTTAATGTCTCAATGTTATTCTCCACCCAATTGACGTCTTTTGTCAATTGGAGGGCAGTGAAACCTTGCCCTTGCTTCTTGCAGAGGATTCCCAGTGGTCTTTCCGCTCTCGACAAGGGAATTCATGATCCACCAAAAGTTGTGAAGAGAGCAGGTCCCATGGAAGCTTTCTGACGACTGATGATGACTGTAGCGACCCTTTGCAGGCAGCGGACCCCCCCACCTGGTGACAGGTGCCTCTGCGGCCAAAAGCCACGTGTTTAACAGACACCTGCAAAGGCGGCACAACCCCAGTGCCTCATCAAAAGTCTGATGACTGTGGAAATAGTCAACCGGCTTTTCTTAAGCAAATTTGGTGTCGGGGCTGAAGGATGCCCGGAAGGTACCACACTGGTTGTGATCTGATCCGGGGCCACAGTACATGTGCTTTACACATGTAGCTGCGGTTAAAAAACGTCTAGGCCCCCCGAACCACGGGGACGTGGTTTTCCTTTGAAAACCACGATTACAAT
B6: Cosavirus D1 (nucleic acid, listed as Cosavirus sp.)
DNA: CGTGCTTTACACGGTTTTTGAACCCCACACCGGCTGTTTGGCGCTTGCAGGACAGTAGGTATATTTTCTTTCATTTCTCTTTTCTAGCCGCGTAGGTTCTATCTACGCGGGCGGAGTGATACTCCCGCTCCTTCTTGGACAGGCGGCCTCCACGCTCTTTGTGGATCTTAAGGCTGCCAAGTCACTGGTGTTTGAAGTGAAGAATGGAGAGACACTAGGGCGTTTCATGTGGCTTTGCCAGGGATTGTAGCGATGCTGTGTGTGTGTGCGGATTTCCCCTCGTGGCGACACGAGCCTCACAGGCCAAAAGCCCTGTCCGAAAGGACCCACACAGTGGGGTTGCCCCGACCCCTCCCTTCAAAGCTTTGTGTAAACAAACTTTTGTTTAGACTTTCTTAAGCTTCTCTCACATCAGGCCCCAAAGATGTCCTGAAGGTACCCTGTGTATCTGAGGATGAGCACCACCAACTACCCGGACTTGTGGGACGTGTCCCACAGACGCATGTGGTATTCCAGCCCCCTCCTTTTGAGGAGGGGGCTTTTGCTCGCTCAGCACAGGATCTGATCAGGAGATTCATCTCTGGTGCTTTACACCAGAGCATGGATTTAAAAATTGCCCAAGGCCTGGCAAACAACCTAGGGGACTAGGTTTTCTCTATTTTAAAAGATGTCAAT
B7: GFTV (nucleic acid)
DNA: ATGGGGAAGGGTATGACGTGCCCCTTCCTTCTTCGGAGAACTCGCTCTAGTGGTCTTTCCACTTCTGGAAAAGAGTGAGTGCACGTGATCAGGACCGTCGAAGACGACAAATACCTGGTGCTCTATCTCATAGACGTTTCACAGCTGTAGCGACCCCTCAGTAGCAGCGGAAGCCCCCTCCTGGTGACAGGAGCCTCTGCGGCCAAAAGCCACGTGGATAAGATCCACTGCTGAGGGCGGTGCGACCCTAGCACCCTGTGATGCATACTAGTTGTAGCGTGCCGGACTATTGGTCTGTCATAAGACACCTGATAGAGAGACCAAGAATGTCCTGGAGGTACCCCGCGTGCGGGATCTGACCAGGAGACCATTGCCCAATGCTTTACAACGGGTCTATGGTTTAAAAACTGTCGCAGTCTCTCCAAACCAAGTGGTCTTGGTTTTCAATTACTTTGAATATTTCACT
B8: SAFV V13C (nucleic acid)
DNA: TTTTCGACGTGGTTGGAATTGCCATCATTTCCGACGAAAGTGCTATCATGCCTCCCCGATTATGTGATGTTTTCTGCCCTGCTGGGCGGAGCATTCTCGGGTTGAGAAACCTTGAATCTTTTTCTTTGGAACCTTGGTTCCCCCGGTCTAAGCCGCTTGGAATATGACAGGGTTATTTTCTTGATCTTATTTCTACTTTTGCGGGTTCTATCCGTAAAAAGGGTACGTGCTGCCCCTTCCTTCTCTGGAGAATTCACACGGCGGTCTTTCCGTCTCTCAACAAGTGTGAATGCAGCATGCCGGAAACGGTGAAGAAAACAGTTTTCTGTGGAAATTTAGAGTGCACATCGAAACAGCTGTAGCGACCTCACAGTAGCAGCGGACTCCCCTCTTGGCGACAAGAGCCTCTGCGGCCAAAAGCCCCGTGGATAAGATCCACTGCTGTGAGCGGTGCAACCCCAGCACCCTGGTTCGATGATCATTCTCTATGGAACCAGAAAATGGTTTTCTCAAGCCCTCCGGTAGAGAAGCCAAGAATGTCCTGAAGGTACCCCGCGTGCGGGATCTGATCAGGAGACCAATTGGCGGTGCTTTACACTGTCACTTTGGTTTAAAAATTGTCACAGCTTCTCCAAACCAAGTGGTCTTGGTTTTCCAATTTTGTTGAATGGCAAT
B9: SAV P-113 (nucleic acid)
DNA: GGAGATCTAAGTCAACCGACTCCGACGAAACTACCATCATGCCTCCCCGATTATGTGATGCTTTCTGCCCTGCTGGGTGGAGCATCCTCGGGTTGAGAAAACCTTCTTCCTTTTTCCTTGGACCCCGGTCCCCCGGTCTAAGCCGCTTGGAATAAGACAGGGTTATCTTCACCTCTTCCTTCTTCTACTTCATAGTGTTCTATACTATGAAAGGGTATGTGTCGCCCCTTCCTTCTTTGGAGAACACGCGCGGCGGTCTTTCCGTCTCTCGAAAAGCGCGTGTGCGACATGCAGAGAACCGTGAAGAAAGCAGTTTGCGGACTAGCTTTAGTGCCCACAAGAAAACAGCTGTAGCGACCACACAAAGGCAGCGGACCCCCCCTCCTGGCAACAGGAGCCTCTGCGGCCAAAAGCCACGTGGATAAGATCCACCTTTGTGTGCGGCACAACCCCAGTGCCCTGGTTTCTTGGTGACACTTCAGTGAAAACGCAAATGGCGATCTGAAGCGCCTCTGTAGGAAAGCCAAGAATGTCCAGGAGGTACCCCTTCCCTCGGGAAGGGATCTGACCTGGAGACACATCACATGTGCTTTACACCTGTGCTTGTGTTTAAAAATTGTCACAGCTTTCCCAAACCAAGTGGTCTTGGTTTTCACTCTTTAAACTGATTTCACT

This data set concerns HEK293 cells. In kind it is cell-based, human. The following applies: luminescence from secreted Gluc in supernatant 24 hours after transfection of HEK293 cells; circular RNA encoding Gluc with the named IRES (UTR truncated to 675 nt).
The molecule B1 displayed an Expression of 3.84E+07. Then B2, with 1.74E+08; and B3, with 2.55E+06. Then B4, with 3.34E+06; and B5, with 1.97E+06; and B6, with 2.11E+06. For the molecule B7, the Expression came to 1.23E+06. B8 came in with an Expression of 9.32E+07. Then B9, with 4.37E+07.
